From patent US8512970B2, “Rapid bioluminescence detection assay” (The Secretary of State for Health, priority 2009, dated 2013)

B1: T. maritima: Adenylate kinase (AK) from Thermotoga maritima, monomer; reporter kinase (protein, UniProt Q9X1I8 1-220, looked up)
Adenylate kinase: MMAYLVFLGPPGAGKGTYAKRLQEITGIPHISTGDIFRDIVKKENDELGKKIKEIMERGELVPDELVNEVVKRRLSEKDCERGFILDGYPRTVAQAEFLDGFLKTQNKELTAAVLFEVPEEVVVQRLTARRICPKCGRIYNLISLPPKEDELCDDCKVKLVQREDDKEETVRHRYKVYLEKTQPVIDYYDKKGILKRVDGTIGIDNVIAEVLKIIGWSDK
B2: S. acidocaldarius: Adenylate kinase (AK) from Sulfolobus acidocaldarius, trimer; reporter kinase (protein, UniProt P35028 1-194, looked up)
Adenylate kinase: MKIGIVTGIPGVGKSTVLAKVKEILDNQGINNKIINYGDFMLATALKLGYAKDRDEMRKLSVEKQKKLQIDAAKGIAEEARAGGEGYLFIDTHAVIRTPSGYLPGLPSYVITEINPSVIFLLEADPKIILSRQKRDTTRNRNDYSDESVILETINFARYAATASAVLAGSTVKVIVNVEGDPSIAANEIIRSMK

Test: Isoelectric point of reporter kinases (Table 2)
Format: physicochemical

Molecule	pI Actual (if known)
B1	~6.7
B2	> 10
